From patent publication US20230265151A1, “GIP/GLP1 CO-AGONIST COMPOUNDS” (priority 2020, published 2023)
*1 amine or outer side, *2 acyl side, *3 side chain or, on linkers, in order; H or OH if unused. Where no end group is shown, it is not given here. Side-chain parts run from the residue outwards. [ ]: non-standard residue; d: D form. The star is where a group is joined. Undecanoyl(11-OPh(4-COOH)) = O=C(O)c1ccc(OCCCCCCCCCCC(=O)*)cc1; Decanoyl(10-(4-HOOC-PhO)) = O=C(O)c1ccc(OCCCCCCCCCC(=O)*)cc1; αMePhe(2-F) = C[C@](N)(Cc1ccccc1F)C(=O)O; γGlu = O=C(O)[C@H](CCC(=O)[*:2])N[*:1]; C14 diacid = O=C(O)CCCCCCCCCCCCC(=O)*; αMeY = C[C@](N)(Cc1ccc(O)cc1)C(=O)O; αMeL = CC(C)C[C@](C)(N)C(=O)O; αMeS = C[C@](N)(CO)C(=O)O; Orn = NCCC[C@H](N)C(=O)O; AEEA = NCCOCCOCC(=O)O; Aib = CC(C)(N)C(=O)O

T1: human GIP receptor (human, UniProt P48546 22-466)
T1 sequence (looked up): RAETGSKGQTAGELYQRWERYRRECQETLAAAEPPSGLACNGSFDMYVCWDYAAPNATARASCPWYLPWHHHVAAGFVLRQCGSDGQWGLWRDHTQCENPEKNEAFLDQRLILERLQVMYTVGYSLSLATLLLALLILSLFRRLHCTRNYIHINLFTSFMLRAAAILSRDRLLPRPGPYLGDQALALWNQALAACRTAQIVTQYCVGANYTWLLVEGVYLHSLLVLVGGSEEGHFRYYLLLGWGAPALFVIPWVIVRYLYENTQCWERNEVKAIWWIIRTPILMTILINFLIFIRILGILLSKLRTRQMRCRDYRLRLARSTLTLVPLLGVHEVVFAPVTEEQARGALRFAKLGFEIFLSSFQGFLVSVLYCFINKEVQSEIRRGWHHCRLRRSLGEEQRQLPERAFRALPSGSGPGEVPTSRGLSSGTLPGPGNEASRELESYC

T2: human GIP receptor (human, UniProt P48546 22-466)
T2 sequence (looked up): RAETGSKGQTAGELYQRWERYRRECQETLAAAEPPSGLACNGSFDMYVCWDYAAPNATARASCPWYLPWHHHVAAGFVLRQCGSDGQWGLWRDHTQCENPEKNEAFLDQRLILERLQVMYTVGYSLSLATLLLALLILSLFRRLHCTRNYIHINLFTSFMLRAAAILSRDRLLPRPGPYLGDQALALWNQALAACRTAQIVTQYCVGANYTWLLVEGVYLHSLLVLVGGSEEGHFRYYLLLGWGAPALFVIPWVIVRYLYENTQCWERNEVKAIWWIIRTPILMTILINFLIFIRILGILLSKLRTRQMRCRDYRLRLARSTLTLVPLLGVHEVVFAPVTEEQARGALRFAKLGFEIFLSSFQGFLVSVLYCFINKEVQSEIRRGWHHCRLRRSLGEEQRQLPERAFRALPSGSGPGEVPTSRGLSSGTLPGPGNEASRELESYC


Key:
Assay in all cases: cell-based or functional assay
human GIP receptor [1] = target: T1, human GIP receptor
human GLP-1 receptor [2] = target: human GLP-1 receptor (human, UniProt P43220 24-463)
human GIP receptor [3] = target: T2, human GIP receptor; remark: listed apart in the source
human GLP-1 receptor [4] = target: human GLP-1 receptor (human, UniProt P43220 24-463); remark: listed apart in the source

Row | Binder | cAMP EC50 (1.0% HSA) (human GIP receptor [1]) [nM] | cAMP EC50 (1.0% HSA) (human GLP-1 receptor [2]) [nM] | cAMP Emax (1.0% HSA) (human GLP-1 receptor [2]) [%] | cAMP Emax (1.0% HSA) (human GIP receptor [1]) [%] | cAMP EC50 (1.0% HSA) (human GIP receptor [3]) [nM] | cAMP EC50 (1.0% HSA) (human GLP-1 receptor [4]) [nM]
1 | Y[Aib]EGT[αMePhe(2-F)]TSDV[αMeS]I[αMeL]LD[Orn]IAQ[Aib]EFIK([AEEA-AEEA-γGlu-C14 diacid])[αMeY]LIK([AEEA-AEEA-γGlu-C14 diacid])GGPSSGAPPPS-NH2 (N-terminus assumed; SMILES CC[C@H](C)[C@H](NC(=O)[C@H](CCCN)NC(=O)[C@H](CC(=O)O)NC(=O)[C@H](CC(C)C)NC(=O)[C@](C)(CC(C)C)NC(=O)[C@@H](NC(=O)[C@](C)(CO)NC(=O)[C@@H](NC(=O)[C@H](CC(=O)O)NC(=O)[C@H](CO)NC(=O)[C@@H](NC(=O)[C@](C)(Cc1ccccc1F)NC(=O)[C@@H](NC(=O)CNC(=O)[C@H](CCC(=O)O)NC(=O)C(C)(C)NC(=O)[C@@H](N)Cc1ccc(O)cc1)[C@@H](C)O)[C@@H](C)O)C(C)C)[C@@H](C)CC)C(=O)N[C@@H](C)C(=O)N[C@@H](CCC(N)=O)C(=O)NC(C)(C)C(=O)N[C@@H](CCC(=O)O)C(=O)N[C@@H](Cc1ccccc1)C(=O)N[C@H](C(=O)N[C@@H](CCCCNC(=O)COCCOCCNC(=O)COCCOCCNC(=O)CC[C@H](NC(=O)CCCCCCCCCCCCC(=O)O)C(=O)O)C(=O)N[C@@](C)(Cc1ccc(O)cc1)C(=O)N[C@@H](CC(C)C)C(=O)N[C@H](C(=O)N[C@@H](CCCCNC(=O)COCCOCCNC(=O)COCCOCCNC(=O)CC[C@H](NC(=O)CCCCCCCCCCCCC(=O)O)C(=O)O)C(=O)NCC(=O)NCC(=O)N1CCC[C@H]1C(=O)N[C@@H](CO)C(=O)N[C@@H](CO)C(=O)NCC(=O)N[C@@H](C)C(=O)N1CCC[C@H]1C(=O)N1CCC[C@H]1C(=O)N1CCC[C@H]1C(=O)N[C@@H](CO)C(N)=O)[C@@H](C)CC)[C@@H](C)CC) [Example 305] | 4.34 | 80.3 | 125 | – | – | –
2 | Y[Aib]EGT[αMePhe(2-F)]TSDV[Aib]I[αMeL]LD[Orn]IAQ[Aib]EFIK([AEEA-AEEA-γGlu-Decanoyl(10-(4-HOOC-PhO))])[αMeY]LIK([AEEA-AEEA-γGlu-Decanoyl(10-(4-HOOC-PhO))])GGPSSGAPPPS-NH2 [Example 308] | 10.5 | 67.3 | – | – | – | –
3 | Y[Aib]EGT[αMePhe(2-F)]TSDV[αMeS]I[αMeL]LD[Orn]IAQ[Aib]EFIK([AEEA-AEEA-γGlu-Decanoyl(10-(4-HOOC-PhO))])[αMeY]LIK([AEEA-AEEA-γGlu-Decanoyl(10-(4-HOOC-PhO))])GGPSSGAPPPS-NH2 [Example 309] | 6.08 | 64.6 | – | – | – | –
4 | Y[Aib]EGT[αMePhe(2-F)]TSDV[Aib]I[αMeL]LD[Orn]IAQ[Aib]EFIK([AEEA-AEEA-γGlu-Undecanoyl(11-OPh(4-COOH))])[αMeY]LIK([AEEA-AEEA-γGlu-Undecanoyl(11-OPh(4-COOH))])GGPSSGAPPPS-NH2 [Example 313] | 21.9 | 98.8 | – | – | – | –
5 | YXEGTXTSDXXIXLDXIAQXEFIKXLIKGGPSSGAPPPS (Y-Aib-EGT-αMeF(2F)-TSD-4Pal-Aib-I-αMeL-LD-Orn-IAQ-Aib-EFIK((2-[2-(2-Amino-ethoxy)-ethoxy]-acetyl)-(γ-Glu)-CO-(CH2)12-CO2H)-αMeY-LIK((2-[2-(2-Amino-ethoxy)-ethoxy]-acetyl)-(γ-Glu)-CO-(CH2)12-CO2H)GGPSSGAPPPS-NH2) [Example 339] | 4.35 | 68.2 | 115 | – | – | –
6 | Y[Aib]EGT[αMePhe(2-F)]TSDV[Aib]I[αMeL]LD[Orn]IAQ[Aib]EFIK([AEEA-AEEA-AEEA-γGlu-C14 diacid])[αMeY]LIK([AEEA-AEEA-AEEA-γGlu-C14 diacid])GGPSSGAPPPS-NH2 (N-terminus assumed; SMILES CC[C@H](C)[C@H](NC(=O)[C@H](CCCN)NC(=O)[C@H](CC(=O)O)NC(=O)[C@H](CC(C)C)NC(=O)[C@](C)(CC(C)C)NC(=O)[C@@H](NC(=O)C(C)(C)NC(=O)[C@@H](NC(=O)[C@H](CC(=O)O)NC(=O)[C@H](CO)NC(=O)[C@@H](NC(=O)[C@](C)(Cc1ccccc1F)NC(=O)[C@@H](NC(=O)CNC(=O)[C@H](CCC(=O)O)NC(=O)C(C)(C)NC(=O)[C@@H](N)Cc1ccc(O)cc1)[C@@H](C)O)[C@@H](C)O)C(C)C)[C@@H](C)CC)C(=O)N[C@@H](C)C(=O)N[C@@H](CCC(N)=O)C(=O)NC(C)(C)C(=O)N[C@@H](CCC(=O)O)C(=O)N[C@@H](Cc1ccccc1)C(=O)N[C@H](C(=O)N[C@@H](CCCCNC(=O)COCCOCCNC(=O)COCCOCCNC(=O)COCCOCCNC(=O)CC[C@H](NC(=O)CCCCCCCCCCCCC(=O)O)C(=O)O)C(=O)N[C@@](C)(Cc1ccc(O)cc1)C(=O)N[C@@H](CC(C)C)C(=O)N[C@H](C(=O)N[C@@H](CCCCNC(=O)COCCOCCNC(=O)COCCOCCNC(=O)COCCOCCNC(=O)CC[C@H](NC(=O)CCCCCCCCCCCCC(=O)O)C(=O)O)C(=O)NCC(=O)NCC(=O)N1CCC[C@H]1C(=O)N[C@@H](CO)C(=O)N[C@@H](CO)C(=O)NCC(=O)N[C@@H](C)C(=O)N1CCC[C@H]1C(=O)N1CCC[C@H]1C(=O)N1CCC[C@H]1C(=O)N[C@@H](CO)C(N)=O)[C@@H](C)CC)[C@@H](C)CC) [Example 344] | 6.78 | 48.3 | – | 87.3 | – | –
7 | Y[Aib]EGT[αMePhe(2-F)]TSDV[Aib]I[αMeL]LD[Orn]IAQ[Aib]EFIK([AEEA-AEEA-AEEA-γGlu-Decanoyl(10-(4-HOOC-PhO))])[αMeY]LIK([AEEA-AEEA-AEEA-γGlu-Decanoyl(10-(4-HOOC-PhO))])GGPSSGAPPPS-NH2 [Example 347] | 7.27 | 51.7 | – | 84.6 | – | –
8 | Y[Aib]EGT[αMePhe(2-F)]TSDV[Aib]I[αMeL]LD[Orn]IAQ[Aib]EFIK([AEEA-γGlu-Decanoyl(10-(4-HOOC-PhO))])[αMeY]LIK([AEEA-γGlu-Decanoyl(10-(4-HOOC-PhO))])GGPSSGAPPPS-NH2 [Example 381] | – | – | – | – | 28 | 153
9 | Y[Aib]EGT[αMePhe(2-F)]TSDV[Aib]I[αMeL]LD[Orn]IAQ[Aib]EFIK([AEEA-γGlu-C14 diacid])[αMeY]LIK([AEEA-γGlu-C14 diacid])GGPSSGAPPPS-NH2 (N-terminus assumed; SMILES CC[C@H](C)[C@H](NC(=O)[C@H](CCCN)NC(=O)[C@H](CC(=O)O)NC(=O)[C@H](CC(C)C)NC(=O)[C@](C)(CC(C)C)NC(=O)[C@@H](NC(=O)C(C)(C)NC(=O)[C@@H](NC(=O)[C@H](CC(=O)O)NC(=O)[C@H](CO)NC(=O)[C@@H](NC(=O)[C@](C)(Cc1ccccc1F)NC(=O)[C@@H](NC(=O)CNC(=O)[C@H](CCC(=O)O)NC(=O)C(C)(C)NC(=O)[C@@H](N)Cc1ccc(O)cc1)[C@@H](C)O)[C@@H](C)O)C(C)C)[C@@H](C)CC)C(=O)N[C@@H](C)C(=O)N[C@@H](CCC(N)=O)C(=O)NC(C)(C)C(=O)N[C@@H](CCC(=O)O)C(=O)N[C@@H](Cc1ccccc1)C(=O)N[C@H](C(=O)N[C@@H](CCCCNC(=O)COCCOCCNC(=O)CC[C@H](NC(=O)CCCCCCCCCCCCC(=O)O)C(=O)O)C(=O)N[C@@](C)(Cc1ccc(O)cc1)C(=O)N[C@@H](CC(C)C)C(=O)N[C@H](C(=O)N[C@@H](CCCCNC(=O)COCCOCCNC(=O)CC[C@H](NC(=O)CCCCCCCCCCCCC(=O)O)C(=O)O)C(=O)NCC(=O)NCC(=O)N1CCC[C@H]1C(=O)N[C@@H](CO)C(=O)N[C@@H](CO)C(=O)NCC(=O)N[C@@H](C)C(=O)N1CCC[C@H]1C(=O)N1CCC[C@H]1C(=O)N1CCC[C@H]1C(=O)N[C@@H](CO)C(N)=O)[C@@H](C)CC)[C@@H](C)CC) [Example 400] | – | – | – | – | 16.7 | 107
